Assay results reported in patent US20210395381A1.
Changes are numbered by the printed parent chain. Values belong to the binder of their own block, whether it stands above or below them.

Target: recombinant mouse TfR-1 (mouse) (UniProt Q62351)
Assay: phage ELISA

Sequence of recombinant mouse TfR-1 (mouse) (Q62351 89-763 limits assumed): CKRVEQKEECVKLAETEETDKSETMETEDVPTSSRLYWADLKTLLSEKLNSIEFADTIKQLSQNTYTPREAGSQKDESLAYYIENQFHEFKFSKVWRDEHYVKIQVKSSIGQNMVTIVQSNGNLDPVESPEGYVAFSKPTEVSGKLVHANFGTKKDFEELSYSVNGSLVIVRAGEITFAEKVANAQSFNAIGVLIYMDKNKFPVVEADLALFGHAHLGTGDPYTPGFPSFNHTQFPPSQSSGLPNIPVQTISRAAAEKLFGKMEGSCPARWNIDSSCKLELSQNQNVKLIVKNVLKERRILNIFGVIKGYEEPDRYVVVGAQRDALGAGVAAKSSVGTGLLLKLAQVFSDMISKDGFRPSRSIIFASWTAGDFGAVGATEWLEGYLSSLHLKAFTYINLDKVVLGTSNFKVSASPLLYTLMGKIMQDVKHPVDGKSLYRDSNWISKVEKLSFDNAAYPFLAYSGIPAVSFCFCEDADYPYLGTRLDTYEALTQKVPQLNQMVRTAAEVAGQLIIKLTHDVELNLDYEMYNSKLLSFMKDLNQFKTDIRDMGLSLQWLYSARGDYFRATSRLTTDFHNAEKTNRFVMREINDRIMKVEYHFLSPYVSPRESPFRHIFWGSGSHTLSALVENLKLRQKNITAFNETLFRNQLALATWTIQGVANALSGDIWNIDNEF

A450: 0.091 A450
B1: Clone 8.17 (VNAR)
VNAR: ARVDQTPQTITKETGESLTINCVLRDSNCALPSTYWYRKKSGSTNEESISKGGRYVETVNSGSKSFSLRINDLTVEDSGTYRCKVIAYRKSIVRGCNYRKHDVYGDGTAVTVNA

A450: 0.046 A450
B2: Clone 8.137 (VNAR)
VNAR: B1 VNAR with Y88Q, R89L, K90S, V93L, R99F, K100G, H101K

A450: 0.053 A450
B3: Clone 8.97 (VNAR)
VNAR: B1 VNAR with Y88Q, R89L, K90S, V93L, R99N, K100I, H101D
